Biological target: Fc gamma receptor (Fc(γ)R) on dendritic cells
Assay: cell-based or functional assay

monoclonal antibody 3G4 (ATCC PTA 4545)
DC uptake of apoptotic tumor cells: 300%

Source: patent US20040219155A1
